Read-outs that look alike come from different tables or passages of the source. Values belong to the compound of their own block, whether it stands above or below them.
How the values were obtained:
[1] = Ex vivo biodistribution in mice bearing M21/M21-L xenografts; settings: mouse, in vivo, iv
Experimental: (§1) For the induction of tumor xenografts, female, athymic BALB/c nude mice (Charles River Laboratories) were injected subcutaneously with either 5 × 10^6 integrin αvβ3-positive M21 cells into the right hind limb and with 5 × 10^6 integrin αvβ3-negative M21-L cells (negative control) into the left hind limb of the same mouse. […] On the day of the experiment, [^68Ga]FSC(succ-RGD)3, [^68Ga]FSC(RGDfE)3, or [^68Ga]FSC(Mal-RGD)3 (∼0.5 MBq/mouse, ∼0.5 μg peptide, respectively) was intravenously injected in the lateral tail vein. Mice were euthanized by cervical dislocation at 1 and 2 h (only for [^68Ga]FSC(succ-RGD)3) after injection. Organs (spleen, pancreas, stomach, intestine, kidney, liver, heart, and lung), blood, muscle tissue, and tumors were dissected and weighed. Activity of the different samples was measured in the gamma counter. Results were expressed as percentage of injected dose per gram tissue (% ID/g).

[2] = system: integrin αvβ3-positive (M21) and integrin αvβ3-negative (M21-L) human melanoma tumors; assay: as above
Experimental: as §1

[3] = system: M21 cells (integrin αvβ3 positive); assay: Internalization assay in M21 cells; format: cell-based, human; settings: 90-min incubation, 37 °C
Experimental: One-milliliter aliquots in Eppendorf tubes were incubated at 37 °C for 1 h in triplicates, and [^68Ga]FSC(succ-RGD)3, [^68Ga]FSC(RGDfE)3, or [^68Ga]FSC(Mal-RGD)3 (approximately 1.5 × 10^6 cpm, 1.2 μg peptides) in PBS with 0.5 % BSA (150 μl, total series) or with 10 μM c(RGDyV) in PBS/0.5 % BSA (150 μl, nonspecific series) at 37 °C was added. After 90-min incubation was stopped by centrifugation, the medium was removed followed by washing (twice) with ice-cold Tris-buffered saline. After incubation in acid wash buffer (20 mM acetate buffer, pH 4.5) at 37 °C for 5 min (two times) and centrifugation, membrane bound activity was collected in plastic vials. Internalized radioligand fraction was collected after lysing cells by addition of 2 M NaOH. The internalized activity was expressed as percentage of total activity per milligram protein after spectrophotometric determination of protein (Bradford assay) in the NaOH fraction.

[4] = Distribution coefficient (logD), octanol/PBS; format: physicochemical
Experimental: A volume of 500 μl PBS including 0.5 MBq radioligand (approximately 0.5 μg peptide) was combined with 500 μl octanol; the mixture was vortexed for 15 min and centrifuged for 2 min at 2000 rcf. From each phase, an aliquot (50 μl) was pipetted out and measured in a 2480 Wizard2 Automatic Gamma Counter (PerkinElmer, Vienna, Austria). Each measurement was repeated five times. LogD value was calculated as the average log ratio of the radioactivity in the organic fraction and the PBS fraction.

[5] = system: integrin αvβ3-positive (M21) and integrin αvβ3-negative (M21-L) human melanoma tumors; settings: 1 h, cited from earlier work
[6] = system: integrin αvβ3-positive M21 tumor; settings: mouse, in vivo, iv
Experimental: To compare the imaging properties of [^68Ga]FSC(succ-RGD)3, [^68Ga]FSC(RGDfE)3, and [^68Ga]FSC(Mal-RGD)3, microPET/CT imaging experiments were conducted on an Inveon microPET/CT scanner (Siemens Preclinical Solutions, Knoxville, USA). BALB/c nude mice bearing M21-positive tumor xenografts were administered with [^68Ga]FSC(succ-RGD)3 (or [^68Ga]FSC(RGDfE)3, [^68Ga]FSC(Mal-RGD)3, ∼5 MBq/mouse, ∼5 μg peptide) via intravenous (i.v.) injection. The body temperature of mice was maintained at 37 °C on the scanner bed and in the incubation chambers using heating pads. Dynamic 10-min duration PET scans were performed for 50 min while static PET scans (10 min) were performed at 1-h post-injection (p.i.), followed by a 25-min CT scan (spatial resolution, 113 μm; 80 kV, 500 mA). The mice remained under general anesthesia (isoflurane/O2) during the time between injection and imaging. […] Spherical isocontours were set at 50 % of the maximal pixel value to measure uptake values (Bq/ml) in kidneys, heart, and tumor.

[7] = MicroPET/CT imaging in U87MG tumor-bearing mice; settings: mouse, uptake value in tumor (ROI analysis), U87MG xenograft, PET, 90 min p.i., retro-orbital
Experimental: To investigate the capabilities of binding to the integrin αvβ3 receptors in the different tumor xenograft models and, at the same time, compare the imaging properties of [^68Ga]FSC(succ-RGD)3 and [^68Ga]NODAGA-RGD, two U87MG tumor-bearing mice were administered retro-orbitally (r.o.) under general anesthesia with [^68Ga]FSC(succ-RGD)3 and [^68Ga]NODAGA-RGD each other (∼6 MBq/mouse, ∼5 μg peptide) at continued days. For the induction of tumor xenografts, female, athymic BALB/c nude mice (AnLab, Prague, Czech Republic) were injected subcutaneously with 5 × 10^6 U87MG cells into the right flank. The tumors were allowed to grow until they had reached a volume of 0.5 to 0.8 cm^3. Imaging experiments were conducted on an Albira microPET/SPECT/CT imaging system (Bruker Biospin Corporation, Woodbridge, CT, USA). MicroPET/CT images were acquired under general anesthesia (isoflurane/O2) and heating at 37 °C. PET data for each mouse was recorded via either dynamic imaging for 90 min (5-min PET scan per frame) or static scans (a 5-min PET scan (axial FOV 148 mm) was performed, followed by a 25-min CT scan (axial FOV 65 mm, 45 kVp, 400 μA, at 600 projections)) at 90 min p.i. […] The uptake values (%ID/g) in kidneys, heart, and tumor were analyzed by drawing standardized volumes of interest.

integrin αvβ3 = target: T1, integrin αvβ3 (Homo sapiens, UniProt P05106+P06756); assay: Binding affinity for immobilized integrin αvβ3, displacement of [^125I]c(RGDyV); settings: isolated integrin αvβ3, radioligand [^125I]c(RGDyV), three independent measurements
T1 construct: purchased Millipore-Chemicon, Temecula, CA, USA
T1 sequence (P06756 31-889 limits assumed): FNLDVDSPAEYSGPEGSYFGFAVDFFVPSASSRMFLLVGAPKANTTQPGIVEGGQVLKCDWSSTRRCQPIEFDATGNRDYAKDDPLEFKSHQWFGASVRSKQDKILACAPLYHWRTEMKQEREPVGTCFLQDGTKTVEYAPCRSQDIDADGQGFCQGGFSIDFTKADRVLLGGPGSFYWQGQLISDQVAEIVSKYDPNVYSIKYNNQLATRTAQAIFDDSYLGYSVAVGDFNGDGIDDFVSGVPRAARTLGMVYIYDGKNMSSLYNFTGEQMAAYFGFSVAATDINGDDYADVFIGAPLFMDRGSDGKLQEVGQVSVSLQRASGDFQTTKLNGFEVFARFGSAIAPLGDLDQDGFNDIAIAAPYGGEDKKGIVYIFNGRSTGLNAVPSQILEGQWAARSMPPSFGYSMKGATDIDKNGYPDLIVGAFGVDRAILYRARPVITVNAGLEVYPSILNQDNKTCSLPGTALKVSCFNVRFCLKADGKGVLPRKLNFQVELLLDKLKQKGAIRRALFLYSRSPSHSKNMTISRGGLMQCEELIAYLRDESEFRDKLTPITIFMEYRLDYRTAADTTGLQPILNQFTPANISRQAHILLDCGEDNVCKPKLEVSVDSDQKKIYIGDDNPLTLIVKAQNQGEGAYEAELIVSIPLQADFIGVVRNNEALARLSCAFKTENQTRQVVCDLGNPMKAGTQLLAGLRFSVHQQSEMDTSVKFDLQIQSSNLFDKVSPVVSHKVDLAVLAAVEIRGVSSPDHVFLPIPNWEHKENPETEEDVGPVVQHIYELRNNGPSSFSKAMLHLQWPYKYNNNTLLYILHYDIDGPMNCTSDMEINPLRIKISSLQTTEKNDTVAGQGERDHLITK
T1 sequence (P06756 891-1048 limits assumed): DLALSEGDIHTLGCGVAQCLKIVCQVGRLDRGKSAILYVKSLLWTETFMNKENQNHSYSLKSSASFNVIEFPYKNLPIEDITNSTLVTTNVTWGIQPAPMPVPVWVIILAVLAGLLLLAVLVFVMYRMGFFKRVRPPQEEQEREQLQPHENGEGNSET
T1 sequence (P05106 27-788): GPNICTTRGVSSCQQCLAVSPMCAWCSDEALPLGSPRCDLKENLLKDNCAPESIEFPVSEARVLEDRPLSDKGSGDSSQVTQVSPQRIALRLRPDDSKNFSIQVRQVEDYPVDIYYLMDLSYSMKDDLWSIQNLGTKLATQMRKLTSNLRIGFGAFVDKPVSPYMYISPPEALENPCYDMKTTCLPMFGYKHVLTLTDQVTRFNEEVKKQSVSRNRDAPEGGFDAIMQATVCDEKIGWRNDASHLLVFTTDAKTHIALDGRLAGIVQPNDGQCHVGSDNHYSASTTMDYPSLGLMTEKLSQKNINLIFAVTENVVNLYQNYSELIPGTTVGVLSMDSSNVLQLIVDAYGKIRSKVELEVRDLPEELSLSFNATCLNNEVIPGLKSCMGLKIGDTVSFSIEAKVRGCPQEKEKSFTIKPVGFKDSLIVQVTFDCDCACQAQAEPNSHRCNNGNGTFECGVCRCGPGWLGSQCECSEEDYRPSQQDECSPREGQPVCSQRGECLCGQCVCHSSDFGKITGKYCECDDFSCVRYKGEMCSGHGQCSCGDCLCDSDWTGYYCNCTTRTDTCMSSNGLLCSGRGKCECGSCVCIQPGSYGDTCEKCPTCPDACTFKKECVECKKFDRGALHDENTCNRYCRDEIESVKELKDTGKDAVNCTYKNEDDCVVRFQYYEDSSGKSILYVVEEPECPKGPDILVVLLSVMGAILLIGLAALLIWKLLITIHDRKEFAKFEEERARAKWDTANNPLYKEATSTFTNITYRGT
Experimental: In vitro binding affinities of cyclo(-Arg-Gly-Asp-DTyr-Val-) (c(RGDyV)) and the three FSC-RGD conjugates were determined by using isolated integrin αvβ3 (Millipore-Chemicon, Temecula, CA, USA) and I-125-labeled c(RGDyV) as radioligand. ([^125I]c(RGDyV) was produced as described in [18]). To integrin αvβ3, coated overnight at 4 °C onto 96-well plates (Nunc, Thermo Fisher Scientific, Vienna, Austria), [^125I]c(RGDyV) and the corresponding peptides in increasing concentrations from 0.001 to 100 nM were added. Plates were washed, and integrin bound activity was recovered with 2-M NaOH solution and counted in a gamma counter. OriginPro 8.5 software (Northampton, MA, USA) was used to calculate half maximal inhibitory concentration (IC50) values in three independent measurements.

[8] = M21 model, 1 h p.i., not statistically significant

Compound: C/C1=C/C(=O)N(O)CCC[C@H](NC(=O)CC[C@@H]2NC(=O)[C@@H](Cc3ccccc3)NC(=O)[C@H](CC(=O)O)NC(=O)CNC(=O)[C@H](CCCNC(=N)N)NC2=O)C(=O)OCC/C(C)=C\C(=O)N(O)CCC[C@H](NC(=O)CC[C@@H]2NC(=O)[C@@H](Cc3ccccc3)NC(=O)[C@H](CC(=O)O)NC(=O)CNC(=O)[C@H](CCCNC(=N)N)NC2=O)C(=O)OCC/C(C)=C\C(=O)N(O)CCC[C@H](NC(=O)CC[C@@H]2NC(=O)[C@@H](Cc3ccccc3)NC(=O)[C@H](CC(=O)O)NC(=O)CNC(=O)[C@H](CCCNC(=N)N)NC2=O)C(=O)OCC1 [[^68Ga]FSC(RGDfE)3, metal not drawn]
tissue uptake at 1 h ([1]; Blood uptake): 0.4 ± 0.08 %ID/g | tissue uptake at 1 h ([1]; Heart uptake): 1.52 ± 0.13 %ID/g | tissue uptake at 1 h ([1]; Intestine uptake): 3.21 ± 0.48 %ID/g | tissue uptake at 1 h ([1]; Kidneys uptake): 11.5 ± 1.87 %ID/g | tissue uptake at 1 h ([1]; Liver uptake): 12.1 ± 1.34 %ID/g | tissue uptake at 1 h ([1]; Lung uptake): 2.48 ± 1.07 %ID/g | tissue uptake at 1 h ([1]; M21-L tumor uptake): 1.1 ± 0.3 %ID/g | tissue uptake at 1 h ([1]; M21 tumor uptake): 5.49 ± 0.94 %ID/g | tissue uptake at 1 h ([1]; Muscle uptake): 0.94 ± 0.09 %ID/g | tissue uptake at 1 h ([1]; Pancreas uptake): 1.04 ± 0.12 %ID/g | tissue uptake at 1 h ([1]; Spleen uptake): 9.13 ± 0.27 %ID/g | tissue uptake at 1 h ([1]; Stomach uptake): 4.76 ± 0.25 %ID/g | M21-L tumor uptake ([2]; mouse, in vivo, iv, 1 h): 1.25 ± 0.06 % ID/g | internalized activity, % of total activity per milligram protein [3]: 5.3 ± 0.7 % cpm/mg | logD [4]: -3.8 ± 0.2

Compound: N=C(N)NCCC[C@@H]1NC(=O)[C@H](CCCCNC(=O)CCC(C(=O)O)N2CCN(CC(=O)O)CCN(CC(=O)O)CC2)NC(=O)[C@@H](Cc2ccccc2)NC(=O)[C@H](CC(=O)O)NC(=O)CNC1=O (stereo partly drawn) [[^68Ga]NODAGA-RGD, metal not drawn]
higher tumor to blood ratio versus [^68Ga]FSC(succ-RGD)3 [2, 8]: 1.8 fold | higher tumor to kidney ratio versus [^68Ga]FSC(succ-RGD)3 [2, 8]: 2 fold | M21/kidneys ratio ([5]; same murine model, calculated based on the literature data ref 14): 1.0 ± 0.4 | M21 tumor uptake ([5]; mouse, in vivo): 1.3 %ID/g

Compound: C/C1=C/C(=O)N(O)CCC[C@H](NC(=O)CCC(=O)NCCCC[C@@H]2NC(=O)[C@@H](Cc3ccccc3)NC(=O)[C@H](CC(=O)O)NC(=O)CNC(=O)[C@H](CCCNC(=N)N)NC2=O)C(=O)OCC/C(C)=C\C(=O)N(O)CCC[C@H](NC(=O)CCC(=O)NCCCC[C@@H]2NC(=O)[C@@H](Cc3ccccc3)NC(=O)[C@H](CC(=O)O)NC(=O)CNC(=O)[C@H](CCCNC(=N)N)NC2=O)C(=O)OCC/C(C)=C\C(=O)N(O)CCC[C@H](NC(=O)CCC(=O)NCCCC[C@@H]2NC(=O)[C@@H](Cc3ccccc3)NC(=O)[C@H](CC(=O)O)NC(=O)CNC(=O)[C@H](CCCNC(=N)N)NC2=O)C(=O)OCC1 [[^68Ga]FSC(succ-RGD)3, metal not drawn]
earliest visualization of the receptor-positive tumor in dynamic PET [6]: 10 min p.i. | tissue uptake at 1 h ([1]; Heart uptake): 1.21 ± 0.28 %ID/g | tissue uptake at 1 h ([1]; Intestine uptake): 2.41 ± 0.8 %ID/g | tissue uptake at 1 h ([1]; Kidneys uptake): 8.12 ± 1.09 %ID/g | tissue uptake at 1 h ([1]; Liver uptake): 3.54 ± 0.63 %ID/g | tissue uptake at 1 h ([1]; Lung uptake): 2.42 ± 0.22 %ID/g | tissue uptake at 1 h ([1]; M21-L tumor uptake): 1.25 ± 0.06 %ID/g | tissue uptake at 1 h ([1]; M21 tumor uptake): 3.69 ± 0.94 %ID/g | tissue uptake at 1 h ([1]; Muscle uptake): 0.52 ± 0.19 %ID/g | tissue uptake at 1 h ([1]; Pancreas uptake): 0.61 ± 0.13 %ID/g | tissue uptake at 1 h ([1]; Stomach uptake): 2.02 ± 1.35 %ID/g | M21/kidneys ratio ([2]; 1 h p.i.): 0.5 ± 0.1 | M21/kidneys ratio ([2]; 2 h p.i.): 0.6 ± 0.1 | Blood uptake ([2]; mouse, in vivo, iv, 1 h): 0.63 ± 0.26 % ID/g | M21-L tumor uptake ([2]; mouse, in vivo, iv, 1 h): 1.10 ± 0.30 % ID/g | Spleen uptake ([2]; mouse, in vivo, iv, 1 h): 3.27 ± 0.64 % ID/g | internalized activity, % of total activity per milligram protein [3]: 5.7 ± 0.6 % cpm/mg | logD [4]: -3.6 ± 0.1 | tissue uptake at […] [7]: 3.8 %ID/g

IC50 (integrin αvβ3): 6.2 ± 1.6 nM
Compound: CC(C)[C@@H]1NC(=O)[C@@H](Cc2ccc(O)cc2)NC(=O)[C@H](CC(=O)O)NC(=O)CNC(=O)[C@H](CCCNC(=N)N)NC1=O [c(RGDyV), cyclo(-Arg-Gly-Asp-DTyr-Val-)]

— paper PMC5010584, “Comparison of Ga-68-Labeled Fusarinine C-Based Multivalent RGD Conjugates and [^68Ga]NODAGA-RGD—In Vivo Imaging Studies in Human Xenograft Tumors” (Molecular Imaging and Biology, 2016)
